Reference: the nanobody polyreactivity screen of Harvey et al. (2022)

assay: yeast display, Sf9 membrane polyspecificity reagent, FACS + sequencing; frameworks hold sequencing errors
Procedure, shortened: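 A synthetic nanobody library was expressed on Saccharomyces cerevisiae BJ5465 by galactose induction for 36–48 hours. The library was stained for 1 hour at 4 °C with 10% biotinylated, detergent-solubilized Sf9 membrane reagent and enriched with streptavidin microbeads before FACS. Low and high (top ~1%) gates were set on anti-HA fluorescence for expression and streptavidin fluorescence for reagent binding, and each polyreactivity label reflects the gate of origin.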

Row | Sequence | polyreactivity (PSR sort gate)
1 | QVQLVESGGGLVQAGGSLRLSCAASGRIFYSYAMGWYIPAPGKERELVAAITVSGGSTFYADSVKGRFTISRDNAKNTVYLQMNSLKPEDTAVYYCAAQSTTIEDGWYVEYNYWGQGTQVTVSS | high polyreactivity
2 | QVQLQESGGGLVQAGGSLRLSCEASCYISDVNDMGWYRQAPGKEREFVAGFGYGGITNYADSVKGRFTISRDNAKNTVYLQMNSLKPKDSAVYNCAVHWGPDRGLYYWGQGTQVTVSS | high polyreactivity
3 | QVQHVESGRGLVQAGGSLRLSCAASGIIFLYYAMGWYREAPGKVRELVAAITGSGGTTYYADSVKGRFTISRDNAMNTVYLQMNSLKPEDTAVYYCATPPPEVWQRWYREYDYWGQGTQVTVSS | low polyreactivity
4 | QVQLVETGGGLVQAGGSLRLSCAASGITFPYYAMGWYRQAPGKERELVDAITIRSGRTYYADSVKGRFTISRDNAKNTFYLQMNSLIPEDTAVYYCAARLSNTYGYWGQGTQVTVSS | high polyreactivity
5 | QVQLVESGGGLVQAGGSLRLSCAASGFIFGKYAMGWYRQAHGKERELVAAITSDGRTYYADSVKGRFTISRDNAKNTVYLQMNSLKPEDTAVYYCAATRYGHRYYYRPYEYWGQGTQVTVSS | high polyreactivity
6 | QVQLVESGGGLVQAGGSLRLSCAASGITFKTYAMGWYRQAPGKERELVATINRGSRTNYADSVKGRFTISRDNAKNTVYLQMNSLKPEDTAVYYCAAEYVTYISSEMDYWGQGTQVTVSS | low polyreactivity
7 | QVQLVESGGGLVQAGGSLRLSCAASGRIFRWSVRGWYRQAPGKERELVAAISYGSGSTYYADSVKGRFTISRDNAKNTVYLQMNSLKPEDTAVYYCAADSQAARYHAYDYWGQGTQVTVSS | high polyreactivity
8 | QVQRVESGGGLVQAGGSLRLSCAASGITFYPYTMGWYRQAPGKQRELVAAISSSGGSTNYADSVKGRFTISRDNAKNSDYLQMISLKPDDSAVYYCAKRYAGNASSDGDSWGQGTQVTVSS | low polyreactivity
9 | QVQLVESGGGLVQAGGSLRLSCAASGRTFSYYTMGWYRQATGKERELVARISNRGTNTYYADSVKGRFTISRDNAKITVYLPMNSLKQEDTAVYYCDKFYYTSIVGYDSWGQGTQVTVSS | low polyreactivity
10 | QVQLVESGGGLVQAGGSLRLSCAASGRTFYRNAMGWYRQAPGKERELVATINSGGSTHYADSVKGRFTISRDNAKNSVYLQMNSLKPEDTAVYYCAARSPSYRGSLSYYWGHGTQVTVSS | high polyreactivity
11 | QVQLVESGGGLVQAGGSLRLSCAASGFTFNDYAMGWYRQAPGKEWELVAAIDWSGGRTYYADSVKGRFTISRDNAKNTVYLQMNSLKAEDTAVYYFAAVLYSRLYWYRLDYWGQGTQVTVSS | low polyreactivity
12 | QVQLVESGGGLVQAGGSLRLSCAASGRTLVPYAMGWYRQAPGKERELVAAINSSGGSTYYADSVKGRFTISRDNAKNTVYLQMNSLKPEDTAVYYCNVQSVHFRLWKDNYWGQGTQVTVSS | high polyreactivity
13 | QVQLVESGGGLVQAGGSLRLSCAASGITTRTYAMGWYRQAPGKDRELVAAISDSGDRTYYADSVKGRCTISRDKAKNTVYLQMNSLKPEDTAVYYCAVDAPGPRGEYWGQGTKVTVSS | low polyreactivity
14 | QVQLVESGGGLVQAGVSLRLSCAASGSTFGANAMGWYRQAPGKEREFVAAISGSGTTTYYADSVKGRFTISRDNAKNTVYLQMNSLKPEDTAVYYCAKTRKAHWLEYWGQGTQVTVSS | low polyreactivity
15 | QVQLVESGGGLVQAGGSLRLSCAASGSTFRYNDMGWYIQAPGKERELVDAITRSDSTNYADSVKGRFTISRDNAKNTVYLQMNSLKPEDTAVYYCAARRHYTYGNGPSRGGQMDYWGQGTQVTVSS | high polyreactivity
16 | QVQLVESGGGLVQAGGSLRLSCAASGIIFVVYAMGWYRQAPGKERELVAAISFRGGSTYYADSVKGRFTISRDNAKNTVYLQMNSLKPEDTAVYYCAARAFRHDGYDYWGQGTQVTVSS | low polyreactivity
17 | QVQLVESGGGLVQAGGSLRISCAASGFTFSAYAMGRYRQAPGKERELVAAISWSGSRTYYADSVKGRFTISRDNAKNTVYLQMNSLKPEDTAVYYCAKEPYDTFGFYEYDYWGQGTQVNVSS | low polyreactivity
18 | QVQLVESGGGLVQAGGSLRLSCAASGSILYYNAMGWYRQAPGKERELVAGIRSSGGSTYYADSVKGRFTISRDTAKNTVYLQMNSLKPEDTAVYYCAKRTYWRRGWGFDYWGQGTQVTVSS | high polyreactivity
19 | QVKLVESGGGLVQAGGSLRLTCAAYGFTFAGYTLGCYRQAPGKERELVAAITSSGGSTYYADYVKGRFTISRDNAKNTVYLQMNSLKPEDTAVYYCAARSHSTYYYWGQGTQVTVSS | high polyreactivity
20 | QVQLQESGGGLVQAGGSLRLSCAASGTISPLPAMGWYRQAPGKEREFVAGIDTGAITNYADSVKGRFTISRDNAKNTVYLQMNSLKPVDTAVYYCAVFPAAYDYYERYYTYWGQGTQVTVSS | low polyreactivity
21 | QVQLVESGGGLVQAGGSLRLSCAASGRIFYYYAMGWYRQAPGKERELVATISGIGGSTYYADSVKGRFTISRDNAKNTVYLQMNSLKPEDTAVYFCTADYPTSYPLFKSGFDYWGQGTQVTVSS | low polyreactivity
22 | QVQLVESGGGLVQAGGILRLSCAASGRIFKDNAMGWYRLAPGKERELVATIDSGGDTNYADSVKGRFTISRDNAKNTVYLQMNSLKPEDTAVYYSNTEGFLSAVYAFGYWGQGTQVTVSS | low polyreactivity

Row | Sequence | polyreactivity (PSR sort gate)
23 | QVQLVESGGGLVQAGVSLRLRCAASASILSYYAMGWYRHAPGKERELVAAISRSGCTTYYADSVKGRFTISRDYAKNTVYLQMNSLIPEDTAVYYCAAVDRYYAYRDYYYWGQGTQVTVSS | high polyreactivity
24 | QVQLVESGGGLVQAGGSLRLSCAASGRIFSRSAMGWYRQAPGKERELVAAIRWSTGSTNYADSVKGRFTISRDNAKNTVYLQMNSLKPEDTAVYYCNARYYVRPYSPGYYYWGQGTQVTVSS | high polyreactivity
25 | QVQLVESGGGLVQAGVRLRLSCAASGFIFVVNAMGWYRPATRKEREFVAVISSSTGSTYYADSVKGRFTISRDNAKYTVYLPMNSLKPEDTAVYYCAAASRRRRPLKRMDYWGQGTQVTVSS | low polyreactivity
26 | QVQLVESGGGLVQAGGSLRLSCAASGRIFRYYAMGWYRQAPGKERELVASINSGGSTYYADSVKGRFTISRDNAKNTVYLQLNSLKPEDTAVYYCAKRVGHSRHADNDYWGQGTQVTVSS | low polyreactivity
27 | QVQLVESGGGLVQAGGSLRLSCAASGSTFYRNVMGWYRQAPGKERELVAAISASGGSTYYADSVKGRFTISRDNAKNTVYLQMNSLKPEVTAVYYCAVDNRQYRYLYYYWGQGSQVTVSS | high polyreactivity
28 | QVQLVESGGGLVQAGGSLRLTCAASGSIFDYYAMGWYRQAHGKERELVAAISDSGSTYYADSVKGRFTISRDNAKNTVYVQMNSLKAEDTAVYYCAAVLWSPYRSEPLDTYEYWGQGTQVTVSS | low polyreactivity
29 | QVQLVESGGGLVQAGGSLRLSCAASGRIFYYYVMGWYRQAPGKERELVAAISSRGGSTYYADSVKGRFTISRDNAKNTVYLQMNSLKPEDTAVYYCAAEYGSISLRYPYYWRYDYWGQGTQVTVSS | high polyreactivity
30 | QVQLVESGGGLVQAGGSLRLSCAASGSTFWPYTMGWYRQAPGKERELVAAISLSGGSTYYADSVKGRFTISRDNAKNTVYLQMNSLKPEDTAVYYCAAEGGYQNWHYLYDYWGQGTQVTVSS | low polyreactivity
31 | QVQLVESGGGLVQAGGSLRLSCAASGNTFDGYDMGWYRQAPGKERELVAAITNTGASTYYADSVKGRFTISRDNAKNTVYLQMNSLKPEDTAVYYCIAQDSYPEDRHGMSYWGQGTQVTVSS | low polyreactivity
32 | QVQLVESGGGLVQAGGSLRLSCAASGFTFWDYTMGWYRQAPGKERELVAAITRSGGRTYYADSVKGRFTISRDNAKNTVYLQMNSLKPEDTAVYYCAAKIWSKDEKHDYWGQGTQVTVSS | high polyreactivity
33 | QVQLVESGGCLVQAGGSLRLSCAASGLTFSRYAMGWYRQAPGKERELVASSSQGGGSTYYADSVKGRFTISRDNAKITVYFQMNSLIPEDTAVYYCAASWYYSLQRYGYWGQGTQETVSS | high polyreactivity
34 | QVQLVESGGGLVQAGGSLRLSCAASGRTFDGYTLGGYRQAPGKERELVAAISTGGGSTYYADSVKGRFTISRDNAKNTVYVQLNSLKPEDTAVYDCAARGGSYSFRRYNYWGQGTQVTVSS | high polyreactivity
35 | QVQLVDSGGGLVQAGGSLRLSCAASGRTFTYYAMGWYRQAPGKERELVASISTTGRTYYADSVKGRFTITRDNAKNTVYLQMNSLKREDTAVYYCNASRVRRWNDYYKKFDYWGQGTQVTVSS | high polyreactivity
36 | QVQLVESGGGLVQAGGSLRLRCAASGSTFYHNAMGWYRQAPGKERELVAAISTRGTSTYYADSVKGRFTISRDKAKNTVYLQMNSLKPEDTAVYYCNAVYKLRARYDYWGQGTQVTVSS | high polyreactivity
37 | QEQLVESGGGLVQAGGSLRLSCGASRSIVHYYAMGWYRQAPGKEREFVAAIAWGGDSTYYADSVKGRFTNSRDNANNTVYFQMYSLKPEDTAVYYCAADGPGGIGNGAGYDYWGQGTEVTVSS | low polyreactivity
38 | QVQLVESGGGLVQAGGSLRLSSAASGSIFSRYAMGWYRQAPGKEREMVAALNGRGSRTYYADSVKGRFTISRDNSKNTVYLLMNSLKPEDTAVYYCAAESYTAWELDYWGQGTQVTVSS | high polyreactivity
39 | QVQLVESGGGLVQAGGSLRLSCAASGFIFGYNAMGWYRQAPGIERELVAAITASGGSTYYADSVKGRFTISLDNAKNTVYLQLNSLIPEDTAVYYCATVLRKNGERGNRLYYWGQGTQVTVSS | high polyreactivity
40 | QDQLVESVGGVVQAGGSLRLSGAASGIIFVAYAMGWYRQAPGKERELVASITYSGGSTNYADSVKGRFTISRDNAKNTVYLQLNSLQPEETAVDYCARDRDPVYASVLWDDYGYWGQGTQVTVSS | low polyreactivity
41 | QVQLGESGGGLVQAGGSLRLRCAASGYILWNAMGWYRQAPGKERELVAAIRFRGGSTSYADSVKGRFTISRDNAKNTVYLQMNSLKPEDTAVYYCNARWWVIRPYQRHDYWGQGTQVTVSS | low polyreactivity
42 | QVQLVESGGGLVQARGSLRLNSAASGRTFYQYVMGWYRQAPWKERELVAAIRSGGNTYYADSEKGRITISRDNAKYTVYLQMNSLKPEDTAVYYCAVQRGYYRFRLGLYCYDYWGQGTQVTVSS | high polyreactivity
43 | QVQLVESGGGLVQAGGSLRLSCAASGSIFRVYAMGWYRQAPGKERELVARISRGGRTNYADSVKGRFTISRDNAKNTVYLQMNSLKPEDTSVYYCAADVVSLESYSYQSLGYDSWGQGTQVNVSS | high polyreactivity
